Experimental data reported in publication PMC2821926, “Carboxy Terminal Tail of Polycystin-1 Regulates Localization of TSC2 to Repress mTOR” (PLoS ONE, 2010).

Target: T1, GST-14-3-3β (UniProt P31946 1-246)
T1 construct: 14-3-3 beta; also called 14-3-3 proteins; source: E. coli DH5α (pGEX), batch-purified on glutathione Sepharose 4B beads
T1 sequence (looked up): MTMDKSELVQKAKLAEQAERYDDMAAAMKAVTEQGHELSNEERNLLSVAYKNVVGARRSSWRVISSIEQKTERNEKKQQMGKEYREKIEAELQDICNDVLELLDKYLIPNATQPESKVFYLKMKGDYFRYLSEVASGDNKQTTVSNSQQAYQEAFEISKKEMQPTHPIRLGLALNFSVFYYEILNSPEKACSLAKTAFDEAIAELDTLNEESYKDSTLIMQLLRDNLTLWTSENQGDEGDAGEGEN
Assay: pull-down; 10 µg GST-14-3-3β on glutathione Sepharose 4B beads mixed with 300 µg protein of lysates of HEK-293 cells expressing CD44-CP1 or Flag-CP1, overnight at 4°C; washed thrice in PBS; immunoblot with anti-TSC2
Settings: one partner purified

fold enhanced binding in Flag-CP1 expressing cells relative to cells expressing CD44-CP1: ~2 fold
B1: tuberous sclerosis complex 2 (TSC2) tumor suppressor (natural protein)
chain: not shown
notes: TSC2 (tuberin), endogenous in HEK-293 cells; also called tuberin; source: endogenous, HEK-293 lysate
